The values that follow come from article PMC3409205, “Crystal Structure of TNF-α-Inducing Protein from Helicobacter Pylori in Active Form Reveals the Intrinsic Molecular Flexibility for Unique DNA-Binding” (PLoS ONE, 2012).

In series [1] the target is T1, TipαN25 (wild type) (Helicobacter pylori 26695, UniProt O25318 25-192). The series can be described thus: ITC; pH 5.0; n=1.47; ITC: 50 mM citric acid/Na citrate pH 5.0, 150 mM NaCl, 25 °C; SPR: 50 mM Hepes pH 7.0, 150 mM NaCl, 0.005% Tween20, 25 °C. The note with it: protein: recombinant; tags: C-terminal LE-6xHis; chain copies: 2; called ssDNA by authors; self-complementary repeat.

Series [2] concerns the molecule itself. Briefly: SEC; analytical gel filtration, Superdex 75 10/300 GL, no reducing agent, pH 4.0 and pH 7.0, dimeric protein concentration 2 mg/ml (also 0.05 and 0.25 mg/ml, Fig. S1).
For series [3], the target named is T2, TipαN25 H60A (Helicobacter pylori 26695, UniProt O25318 25-192, H60A). The series can be described thus: SPR; pH 7.0; ka 2.9 M-1 s-1, kd 1.75E-04 s-1; ITC: 50 mM citric acid/Na citrate pH 5.0, 150 mM NaCl, 25 °C; SPR: 50 mM Hepes pH 7.0, 150 mM NaCl, 0.005% Tween20, 25 °C. The note with it: protein: recombinant; tags: C-terminal LE-6xHis; chain copies: 2; label: 5' biotin; called ssDNA by authors; self-complementary repeat. (In general: Surface plasmon resonance follows binding to a sensor surface in real time, without labels.)

For series [4], the target named is T1, TipαN25 (wild type). The series can be described thus: ITC; pH 5.0; n=1.17; ITC: 50 mM citric acid/Na citrate pH 5.0, 150 mM NaCl, 25 °C; SPR: 50 mM Hepes pH 7.0, 150 mM NaCl, 0.005% Tween20, 25 °C. The settings on record: protein: recombinant; tags: C-terminal LE-6xHis; chain copies: 2; called ssDNA by authors; self-complementary repeat. Background: In ITC the heat of successive injections is recorded.

The next series has as its target TipαN25 K65A/K66A (Helicobacter pylori 26695, UniProt O25318 25-192, K65A;K66A). Briefly: ITC; pH 5.0; n=0.921; ITC: 50 mM citric acid/Na citrate pH 5.0, 150 mM NaCl, 25 °C; SPR: 50 mM Hepes pH 7.0, 150 mM NaCl, 0.005% Tween20, 25 °C. The settings on record: protein: recombinant; tags: C-terminal LE-6xHis; chain copies: 2; called ssDNA by authors; self-complementary repeat.

A further series has as its target TipαN25 R77A (Helicobacter pylori 26695, UniProt O25318 25-192, R77A). Briefly: ITC; pH 5.0; n=0.477; ITC: 50 mM citric acid/Na citrate pH 5.0, 150 mM NaCl, 25 °C; SPR: 50 mM Hepes pH 7.0, 150 mM NaCl, 0.005% Tween20, 25 °C. The note with it: protein: recombinant; tags: C-terminal LE-6xHis; chain copies: 2; called ssDNA by authors; self-complementary repeat.
The target in a further series is TipαN25 R77A/R81A (Helicobacter pylori 26695, UniProt O25318 25-192, R77A;R81A). Briefly: ITC; pH 5.0; n=0.491; ITC: 50 mM citric acid/Na citrate pH 5.0, 150 mM NaCl, 25 °C; SPR: 50 mM Hepes pH 7.0, 150 mM NaCl, 0.005% Tween20, 25 °C. The note with it: protein: recombinant; tags: C-terminal LE-6xHis; chain copies: 2; called ssDNA by authors; self-complementary repeat.

The target in series [5] is T1, TipαN25 (wild type). Briefly: ITC; pH 5.0; n=0.925 dimer per DNA; ITC: 50 mM citric acid/Na citrate pH 5.0, 150 mM NaCl, 25 °C; SPR: 50 mM Hepes pH 7.0, 150 mM NaCl, 0.005% Tween20, 25 °C. The note with it: protein: recombinant; tags: C-terminal LE-6xHis; chain copies: 2; called ssDNA by authors; self-complementary repeat.
Series [6] has as its target T2, TipαN25 H60A. The series can be described thus: ITC; pH 5.0; n=0.5; ITC: 50 mM citric acid/Na citrate pH 5.0, 150 mM NaCl, 25 °C; SPR: 50 mM Hepes pH 7.0, 150 mM NaCl, 0.005% Tween20, 25 °C. The settings on record: protein: recombinant; tags: C-terminal LE-6xHis; chain copies: 2; called ssDNA by authors; self-complementary repeat.
Another series deals with TipαN25 K104A (Helicobacter pylori 26695, UniProt O25318 25-192, K104A). Briefly: ITC; pH 5.0; n=0.87; ITC: 50 mM citric acid/Na citrate pH 5.0, 150 mM NaCl, 25 °C; SPR: 50 mM Hepes pH 7.0, 150 mM NaCl, 0.005% Tween20, 25 °C. The settings on record: protein: recombinant; tags: C-terminal LE-6xHis; chain copies: 2; called ssDNA by authors; self-complementary repeat.
The target of series [7] is T1, TipαN25 (wild type). Briefly: ITC; pH 5.0; n about 1; ITC: 50 mM citric acid/Na citrate pH 5.0, 150 mM NaCl, 25 °C; SPR: 50 mM Hepes pH 7.0, 150 mM NaCl, 0.005% Tween20, 25 °C. The settings on record: protein: recombinant; tags: C-terminal LE-6xHis; chain copies: 2.

The term stoichiometry N denotes a count of units in the complex or per binding partner. In general, Kd refers to the constant that tells how readily two partners part at equilibrium.

B1: (dGdC)30, 60 nt (ssDNA)
DNA: GCGCGCGCGCGCGCGCGCGCGCGCGCGCGCGCGCGCGCGCGCGCGCGCGCGCGCGCGCGC
In the case of B1, the Ka with TipαN25 (wild type) [1] was 1.03e+06 M⁻¹.

B2: TipαN^25 (N-terminal-truncated TNF-α-inducing protein Tipα starting from residue Cys25) (domain or fragment)
chain: CTCPNTSQRNSFLQDVPYWMLQNRSEYITQGVDSSHIVDGKKTEEIEKIATKRATIRVAQNIVHKLKEAYLSKTNRIKQKITNEMFIQMTQPIYDSLMNVDRLGIYINPNNEEVFALVRARGFDKDALSEGLHKMSLDNQAVSILVAKVEEIFKDSVNYGDVKVPIAM
notes: Tipα (TNF-α-inducing protein), Helicobacter pylori strain 26695, gene 0596, 192 amino acids; residues 25-192 (Δ1–24), amplified from genomic DNA into pET22b(+); The entry is the single chain (protomer); A SeMet form (E. coli B834) was used only for phasing; also called Tipα (Δ1–24); native TipαN^25; source: E. coli BL21 (DE3), purified (Ni-NTA, Hitrap SP cation exchange, Superdex 75)
Turning to B2, in [2], the “stoichiometry N” value amounted to 2.
As for GCGCGCGCGCGCGCGCGCGC (ssDNA) [5'-biotin (dGdC)10, 20 nt], the Kd in the series with TipαN25 H60A [3] stood at 60.3 µM.
In the case of GCGCGCGCGCGCGCGCGCGCGCGCGCGCGCGCGCGCGCGC (ssDNA) [(dGdC)20, 40 nt], the Ka with TipαN25 (wild type) [4] was 937000 M⁻¹.
With GCGCGCGCGCGCGCGCGCGC (ssDNA) [(dGdC)10, 20 nt], the Ka with TipαN25 K65A/K66A turned out to be 261000 M⁻¹; with TipαN25 R77A, 479000 M⁻¹; with TipαN25 R77A/R81A, 140000 M⁻¹; with TipαN25 (wild type) [5], 1.04e+06 M⁻¹; with TipαN25 H60A [6] it was 28200 M⁻¹; with TipαN25 K104A, 631000 M⁻¹.

B3: 20 bp dsDNA (dsDNA)
DNA 1: GCCTTGCCGCCGCCCTTGCC
DNA 2: GGCAAGGGCGGCGGCAAGGC
For the molecule B3, the Ka with TipαN25 (wild type) [7] came out at 1.02e+06 M⁻¹.
